Assay [1] addresses HPLC-purified recombinant ORF2 capsid protein of human HEV Sar-55 (baculovirus-expressed) (human HEV, Sar-55 strain (Pakistan)) (UniProt P33426). Kind of assay: ELISA, antigen coated at 2 µg/ml, serum 1/200; negative control. For orientation: ELISA stands for enzyme-linked immunosorbent assay.
Assay [2] deals with HPLC-purified recombinant ORF2 capsid protein of swine HEV (baculovirus-expressed) (swine HEV). The assay is described as above.

UniProt P33426, sequence (P33426 112-607): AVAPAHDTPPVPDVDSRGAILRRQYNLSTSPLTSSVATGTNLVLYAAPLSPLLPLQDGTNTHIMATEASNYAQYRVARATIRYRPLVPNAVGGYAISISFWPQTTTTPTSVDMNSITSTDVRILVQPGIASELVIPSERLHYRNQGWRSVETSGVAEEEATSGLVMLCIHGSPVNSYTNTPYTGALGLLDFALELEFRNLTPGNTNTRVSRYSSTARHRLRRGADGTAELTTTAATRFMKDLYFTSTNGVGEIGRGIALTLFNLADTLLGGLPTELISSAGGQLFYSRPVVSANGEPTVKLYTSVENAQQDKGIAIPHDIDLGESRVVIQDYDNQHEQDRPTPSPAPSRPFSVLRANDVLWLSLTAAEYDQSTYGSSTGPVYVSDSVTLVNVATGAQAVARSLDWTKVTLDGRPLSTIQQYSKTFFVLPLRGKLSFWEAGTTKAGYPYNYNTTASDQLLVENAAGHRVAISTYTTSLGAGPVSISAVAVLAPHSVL

As for “preinoculation control chicken serum (antibody)”, the OD stood at 0.142 OD at 405 nm in assay [1] and 0.103 OD at 405 nm in assay [2].
